These results are taken from patent US11732029B2, “Methods and compositions for the treatment of wounds” (The University of Chicago, priority 2017, dated 2023).

The target of assay [1] is T1, VEGF-A165 (Homo sapiens, UniProt P15692).
T1 construct: All growth factors (GFs) and chemokines were purchased in their mature forms; purchased PeproTech; host or cells: Escherichia coli
T1 sequence (P15692 27-191 isoform P15692-4 limits assumed): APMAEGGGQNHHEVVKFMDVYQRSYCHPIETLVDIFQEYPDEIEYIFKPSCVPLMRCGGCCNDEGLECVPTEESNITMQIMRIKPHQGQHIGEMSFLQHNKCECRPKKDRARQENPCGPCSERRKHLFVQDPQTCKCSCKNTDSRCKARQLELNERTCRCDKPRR
Kind of assay: Recombinant GF binding to the vWF recombinant protein and A1 HBD peptide (ELISA). Particulars: plate coated with vWF protein, A1 domain or HBD peptide, 1 μg/mL GF. The protocol:
(§1) ELISA tests were performed as described above. In brief, ELISA plates were coated with 1 μg/mL of FL-vWF (WT or R1341Q), 1 μg/mL of vWF A1 recombinant protein (U-Protein Express) or 1 μg/mL of vWF A1 HBD peptide (sequence […], (SEQ ID NO:50) chemically synthesized by Genscript) at 37° C. overnight. After blocking with 2% BSA solution containing PBS-T, 1 μg/mL of the recombinant human proteins VEGF-A121, VEGF-A165, PlGF-1, PlGF-2, PDGF-BB, FGF-2, CXCL-12α and CXCL-12γ were added. 1 μg/mL of BSA served as non-binding protein control. Bound GF or chemokine was detected with biotinylated antibodies for human VEGF-A, PlGF, PDGF-BB, FGF-2, or CXCL-12 (R & D Systems). The antibodies were detected by streptavidin-HRP (R & D Systems). Color development and the absorbance measurement were done as described above.
(In general: In an ELISA, binding on a coated surface is turned into a signal by an enzyme label.)

Assay [2] deals with T2, PDGF-BB (Homo sapiens, UniProt P01127).
T2 construct: All growth factors (GFs) and chemokines were purchased in their mature forms; purchased PeproTech; host or cells: Escherichia coli
The description is as above. As to conditions: plate coated with vWF protein, A1 domain or HBD peptide, 1 μg/mL GF. The protocol:
as §1

For assay [3], the target named is T3, CXCL-12γ (Homo sapiens, UniProt P48061).
T3 construct: All GFs and chemokines were purchased in their mature forms; purchased R & D Systems; host or cells: Escherichia coli
Described as above. As to conditions: plate coated with vWF protein, A1 domain or HBD peptide, 1 μg/mL GF. The procedure:
as §1

The target of assay [4] is FGF-2 (Homo sapiens, UniProt P09038). The description is as above. Particulars: plate coated with vWF protein, A1 domain or HBD peptide, 1 μg/mL GF. Also on record: All growth factors (GFs) and chemokines were purchased in their mature forms; purchased PeproTech; host or cells: Escherichia coli. The protocol: as §1
The target of assay [5] is T4, PlGF-2 (Homo sapiens, UniProt P49763).
T4 sequence (P49763 19-170 isoform P49763-3 limits assumed): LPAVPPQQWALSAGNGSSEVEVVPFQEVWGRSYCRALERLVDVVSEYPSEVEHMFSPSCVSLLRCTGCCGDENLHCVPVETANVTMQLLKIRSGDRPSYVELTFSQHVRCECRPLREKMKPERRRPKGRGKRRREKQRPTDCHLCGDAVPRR
Described as above. More on the design: All growth factors (GFs) and chemokines were purchased in their mature forms; purchased PeproTech; host or cells: Escherichia coli. As to conditions: plate coated with vWF protein, A1 domain or HBD peptide, 1 μg/mL GF. The protocol:
as §1

The target of assay [6] is T5, PlGF-1 (Homo sapiens, UniProt P49763).
T5 sequence (P49763 19-149 isoform P49763-2 limits assumed): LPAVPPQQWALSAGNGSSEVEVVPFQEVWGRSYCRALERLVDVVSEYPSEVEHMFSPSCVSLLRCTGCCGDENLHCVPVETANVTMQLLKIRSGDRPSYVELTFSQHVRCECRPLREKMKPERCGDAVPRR
The description is as above. Particulars: plate coated with vWF protein, A1 domain or HBD peptide, 1 μg/mL GF. More on the design: All growth factors (GFs) and chemokines were purchased in their mature forms; purchased PeproTech; host or cells: Escherichia coli. The protocol: as §1

Assay [7] has as its target T6, VEGF-A121 (Homo sapiens, UniProt P15692).
T6 sequence (P15692 27-147 isoform P15692-9 limits assumed): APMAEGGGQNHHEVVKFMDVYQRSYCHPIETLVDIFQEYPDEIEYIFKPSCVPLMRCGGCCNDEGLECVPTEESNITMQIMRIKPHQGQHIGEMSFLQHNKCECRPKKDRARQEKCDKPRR
The assay is described as above. More on the design: All growth factors (GFs) and chemokines were purchased in their mature forms; purchased PeproTech; host or cells: Escherichia coli. Particulars: plate coated with vWF protein, A1 domain or HBD peptide, 1 μg/mL GF. The procedure: as §1

The subject of assay [8] is human lung fibroblasts. The experiment in a line: Cell proliferation assay with vWF HBD, fibroblasts. The class given is cell-based. As to conditions: vWF HBD coated plates, 72 hrs, in the presence of FGF-2. The protocol:
Cell proliferation assays were performed as previously reported1. Briefly, human lung fibroblasts (Lonza) were cultured using FGM-2 medium (Lonza) (1000 cells/well) or human umbilical vein endothelial cells (HUVEC, Lonza) were cultured using EGM-2 medium (Lonza) (1000 cells/well) on 1 μg/mL vWF HBD pre-coated 96-well plates (Tissue culture treated, Falcon). Cell numbers were quantified after 72 hrs using a CyQUANT assay (Invitrogen).

In assay [9] the target is T6, VEGF-A121. Kind of assay: vWF binding to recombinant VEGF-A isoforms (ELISA). Also on record: All growth factors (GFs) and chemokines were purchased in their mature forms; purchased PeproTech; host or cells: Escherichia coli. As to conditions: plate coated with 50 nM vWF domains, 1 μg/mL VEGF-A, vs BSA. The procedure:
ELISA was performed as previously reported1. In brief, ELISA plates (med binding: Greiner Bio-One) were coated with 50 nM BSA (GE Healthcare), pro-peptide containing recombinant vWF (Sino Biological), plasma-derived vWF (EMD Millipore), recombinant human vWF A1 domain (U-Protein Express), recombinant human vWF A2 domain (R & D systems), recombinant human vWF A3 domain (U-Protein Express), vWF A1 HBD peptide or scrambled/mutated HBD peptide (all peptides were synthesized by Genscript). After blocking with 2% BSA solution containing PBS-T, 1 μg/mL of recombinant human VEGF-A121 (PeproTech), recombinant human VEGF-A145 (R & D Systems), or recombinant human VEGF-A165 (PeproTech) was added. Bound VEGF-A was detected with 1 μg/mL of mouse anti-human VEGF-A antibody (clone: 26503, R & D systems). After 60 min of incubation, horseradish peroxidase (HRP) conjugated goat anti-mouse antibody (1:2000 dilution, Dako) was added and incubated for another 60 min. Color development and the absorbance measurement were done as described above.

Chain of FGF-2 (P09038 143-288): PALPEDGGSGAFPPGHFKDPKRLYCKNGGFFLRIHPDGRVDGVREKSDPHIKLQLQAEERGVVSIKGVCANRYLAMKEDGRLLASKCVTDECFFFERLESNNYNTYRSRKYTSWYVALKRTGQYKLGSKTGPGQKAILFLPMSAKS
T3 sequence (P48061 22-119 isoform P48061-3): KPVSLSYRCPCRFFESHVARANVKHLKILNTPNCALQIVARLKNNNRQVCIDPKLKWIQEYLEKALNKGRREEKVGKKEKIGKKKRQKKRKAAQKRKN
T2 sequence (P01127 82-190 limits assumed): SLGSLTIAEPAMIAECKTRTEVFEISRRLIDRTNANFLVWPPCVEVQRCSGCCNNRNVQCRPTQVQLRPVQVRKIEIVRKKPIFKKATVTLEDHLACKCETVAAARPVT

For the substance YIGLKDRKRPSELRRIASQVKYAC [vWF HBD], in assay [1], the “binding to VEGF-A165” value was “showed binding”. Besides, in [2], the “binding to PDGF-BB” value is on record as “showed binding”. The “binding to CXCL-12γ” value in assay [3] was “showed binding”. Moreover, the “binding to FGF-2” value in [4] is on record as “showed binding”. The “binding to PlGF-2” value in assay [5] was “showed binding”. Besides, in [6], the “binding to PlGF-1” value is given as “neither VEGF-A121 nor PlGF-1 were able to bind”. Also, the “binding to VEGF-A121” value in [7] is given as “neither VEGF-A121 nor PlGF-1 were able to bind”. Besides, the fibroblast proliferation entry in assay [8] is on record as “did not significantly affect fibroblast proliferation”.
Consider “vWF: human plasma-derived von Willebrand factor (EMD Millipore)”, for which the “binding to VEGF-A121” value in assay [9] was “did not”.
